Laboratory results published in article doi:10.1101/2022.11.03.514279 (bioRxiv, 2022).

B1: pVI (f1 phage minor capsid protein) (natural protein, f1 filamentous phage, UniProt P69531 1-112, looked up)
chain: MPVLLGIPLLLRFLGFLLVTLFGYLLTFLKKGFGKIAIAISLFLALIIGLNSILVGYLSDISAQLPSDFVQGVQLILPSNALPCFYVILSVKAAIFIFDVKQKIVSYLDWDK
B2: pVII (f1 phage minor capsid protein) (natural protein, f1 filamentous phage, UniProt P69534 1-33, looked up)
chain: MEQVADFDTIYQAMIQISVVLCFALGIIAGGQR

Experiments:
[1] = molecular target: the molecule itself; assay: cryo-EM structure
[2] = molecular target: B2; assay: cryo-EM structure

| Binder | stoichiometry N [1] | binding result [2] |
| --- | --- | --- |
| B1 | 5 |  |
| B2 | 5 |  |
| MSVLVYSFASFVLGWCLRSGITYFTRLMETSS (natural protein, f1 filamentous phage, UniProt P69537 1-32, looked up) [pIX (f1 phage minor capsid protein)] |  | binds |
